From patent publication US20260152553A1 come the findings set out here.

This assay deals with CD19/CD20 bispecific CAR (Leu16 scFv-(G4S)4-FMC63 scFv-IgG4 hinge-CD28 TM-4-1BB-CD3 zeta). Kind of assay: flow cytometry, staining of T cells (donor 1917) transduced with CD19/20 CAR lentiviral vector. For orientation: Flow cytometry measures light scatter and fluorescence of single cells or particles in a stream.
Sequence of CD19/CD20 bispecific CAR (Leu16 scFv-(G4S)4-FMC63 scFv-IgG4 hinge-CD28 TM-4-1BB-CD3 zeta) (chain, as listed by the source): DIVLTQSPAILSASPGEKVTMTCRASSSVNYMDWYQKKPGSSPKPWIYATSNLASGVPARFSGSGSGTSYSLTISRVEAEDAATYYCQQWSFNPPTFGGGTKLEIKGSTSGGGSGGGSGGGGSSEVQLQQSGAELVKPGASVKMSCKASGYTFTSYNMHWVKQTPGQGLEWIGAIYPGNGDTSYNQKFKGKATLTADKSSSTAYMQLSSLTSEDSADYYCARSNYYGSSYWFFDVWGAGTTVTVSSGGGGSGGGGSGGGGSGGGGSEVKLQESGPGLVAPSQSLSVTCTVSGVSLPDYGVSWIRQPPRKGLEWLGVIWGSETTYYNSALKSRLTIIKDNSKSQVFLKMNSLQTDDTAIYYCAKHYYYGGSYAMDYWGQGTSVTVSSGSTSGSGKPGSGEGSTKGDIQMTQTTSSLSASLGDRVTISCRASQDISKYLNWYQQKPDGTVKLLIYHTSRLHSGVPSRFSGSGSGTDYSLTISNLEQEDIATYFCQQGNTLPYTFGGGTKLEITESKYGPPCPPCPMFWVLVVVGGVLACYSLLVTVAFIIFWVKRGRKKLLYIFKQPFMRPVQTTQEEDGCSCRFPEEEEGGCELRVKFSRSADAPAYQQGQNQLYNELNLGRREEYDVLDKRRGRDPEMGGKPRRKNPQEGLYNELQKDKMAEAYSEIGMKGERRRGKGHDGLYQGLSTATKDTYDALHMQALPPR

In the case of “Byotinilated anti-FMC63 (Acros) (antibody)”, the % Positive Cells worked out at 59.6%.
